Experiment [1] has as its target T1, human GIP-R (human, UniProt P48546 22-466).
T1 sequence (looked up): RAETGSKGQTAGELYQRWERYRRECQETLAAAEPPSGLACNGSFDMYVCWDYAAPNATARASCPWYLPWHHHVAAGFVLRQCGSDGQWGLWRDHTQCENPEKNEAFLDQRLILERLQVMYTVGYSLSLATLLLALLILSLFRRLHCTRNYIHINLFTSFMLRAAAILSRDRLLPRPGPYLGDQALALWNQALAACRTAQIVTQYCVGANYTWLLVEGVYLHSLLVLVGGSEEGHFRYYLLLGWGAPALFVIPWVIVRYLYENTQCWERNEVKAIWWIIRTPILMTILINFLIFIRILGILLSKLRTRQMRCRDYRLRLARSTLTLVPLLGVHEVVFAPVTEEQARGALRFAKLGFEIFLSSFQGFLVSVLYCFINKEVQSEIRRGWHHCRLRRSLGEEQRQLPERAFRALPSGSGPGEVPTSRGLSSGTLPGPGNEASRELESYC
Description: cell-based or functional assay.

The target in experiment [2] is human GLP-R (human, UniProt P43220 24-463). Description: cell-based or functional assay.

This note sets out measurements from patent US20160310575A1 (INDIANA UNIVERSITY RESEARCH AND TECHNOLOGY, published 2016).

Non-standard residues stand in square brackets, D forms with d. No end group written: not given here. Aib = CC(C)(N)C(=O)O

B1: PEG-peptide-long24A (peptide)
peptide: Y[Aib]EGTFTSDYSIYLDKQAA[Aib]EFVAWLLAGGPSSGAPPPSKLPETGGSGS-NH2
modifications: also: PEG (site and size not given here)
Regarding B1, the “EC50 [nM], GIP-R (cAMP assay)” value in experiment [1] is 7.51 nM. In addition, the “EC50 [nM], GLP1-R (cAMP assay)” value in experiment [2] was 3.89 nM.
